{"source": "patent US20180155451A1", "about": "(published 2018)", "binders": {"B1": {"name": "IL6R-BP253/IL6R-L (antibody, human IgG1, kappa)", "heavy": "QVQLQESGPGLVKPSETLSLTCAVSGHSISHDHAWSWVRQPPGEGLEWIGFISYSGITNYNPSLQGRVTISRDNSKNTLYLQMNSLRAEDTAVYYCARSLARTTAMDYWGEGTLVTVSSASTKGPSVFPLAPSSKSTSGGTAALGCLVKDYFPEPVTVSWNSGALTSGVHTFPAVLQSSGLYSLSSVVTVPSSSLGTQTYICNVNHKPSNTKVDKKVEPKSCDKTHTCPPCPAPELLGGPSVFLFPPKPKDTLMISRTPEVTCVVVDVEHEDPEVKFNWYVDGVEVHNAKTKPREEQYNSTYRVVSVLTVLHQDWLNGKEYKCKVSNKAFPAPIEKTISKAKGQPREPQVYTLPPSRDELTKNQVSLTCLVKGFYPSDIAVEWESNGQPENNYKTTPPVLDSDGSFFLYSKLTVDKSRWQQGNVFSCSVMHEALHNHYTQESLSLSP", "light": "not shown", "notes": "Homodimer; IL6R-BP253 is IL6R-B3 with S267E and L328F"}}, "key": {"[1]": {"biological_target": "T1, FcgRIIb extracellular domain with C-terminal His tag (human, UniProt P31994 43-217)", "T1 construct": "extracellular domain; Expressed in FreeStyle293 cells; also called FcγRIIb; 2b; not shown: His tag at the C terminus", "T1 sequence (looked up)": "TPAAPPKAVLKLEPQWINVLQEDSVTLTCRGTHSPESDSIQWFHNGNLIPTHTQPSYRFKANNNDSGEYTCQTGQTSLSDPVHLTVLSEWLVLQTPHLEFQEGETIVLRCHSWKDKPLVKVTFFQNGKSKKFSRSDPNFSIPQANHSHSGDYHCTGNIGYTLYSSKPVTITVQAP", "test": "SPR (Biacore); KD of the sample for FcgRIIaR divided by its KD for FcgRIIb (selectivity for FcgRIIb)", "procedure": "(§1) Analysis of interaction between obj ective antibody and the FcγR was carried out using Biacore T100 (GE Healthcare), Biacore T200, Biacore A100, and Biacore 4000. HBS-EP+ (GE Healthcare) was used as the running buffer, and the measurement temperature was set to 25° C. Chips produced by immobilizing the antigen peptide by the amine coupling method to a Series S sensor Chip CM5 (GE Healthcare), chips produced by allowing preliminarily biotinylated antigen peptides to interact with and immobilize onto a Series S Sensor Chip SA (certified) (GE Healthcare), chips produced by immobilizing Protein L (ACTIGEN, BioVision) to Series S Sencor Chip CM5 (GE Healthcare), or chips produced by immobilizing Protein A/G (Thermo Scientific) to Series S Sencor Chip CM5 (GE Healthcare) were used. Antibodies of interest were captured onto these chips, and allowed to interact to each FcγR diluted with running buffer. To regenerate and repeatedly use the chip, the antibodies captured onto the chip were washed off by reacting 10 mM glycine-HCl, pH 1.5."}, "[2]": {"biological_target": "T1, FcgRIIb extracellular domain with …", "test": "SPR (Biacore), antibody captured on chip, soluble FcgR as analyte, kinetic 1:1 fit", "procedure": "(§2) The variants were assessed for the binding activity to FcgR Ia, FcgR IIaR, FcgR IIaH, and FcgRIIb according to the method described in Reference Example 8.\nas §1"}, "[3]": {"biological_target": "T2, FcgRIa extracellular domain with C-terminal His tag (human, UniProt P12314 16-292)", "T2 construct": "extracellular domain; Expressed in FreeStyle293 cells; also called FcγRIa; not shown: His tag at the C terminus", "T2 sequence (P12314 16-292)": "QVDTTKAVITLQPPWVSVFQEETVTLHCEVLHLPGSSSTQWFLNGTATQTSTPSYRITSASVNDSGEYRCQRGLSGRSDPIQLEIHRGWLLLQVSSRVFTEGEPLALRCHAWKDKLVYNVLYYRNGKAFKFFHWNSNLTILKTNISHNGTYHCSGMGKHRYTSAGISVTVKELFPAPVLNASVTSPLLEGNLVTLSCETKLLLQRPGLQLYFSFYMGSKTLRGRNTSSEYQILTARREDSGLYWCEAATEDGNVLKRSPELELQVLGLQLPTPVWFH", "test": "SPR (Biacore), antibody captured on chip, soluble FcgR as analyte, kinetic 1:1 fit", "procedure": "as §2, §1"}, "[4]": {"biological_target": "T3, FcgRIIa type H extracellular domain with C-terminal His tag (human, UniProt P12318 34-217)", "T3 construct": "extracellular domain; also called FcgRIIaH; FcgRIIa H; not shown: His tag at the C terminus", "T3 sequence (looked up)": "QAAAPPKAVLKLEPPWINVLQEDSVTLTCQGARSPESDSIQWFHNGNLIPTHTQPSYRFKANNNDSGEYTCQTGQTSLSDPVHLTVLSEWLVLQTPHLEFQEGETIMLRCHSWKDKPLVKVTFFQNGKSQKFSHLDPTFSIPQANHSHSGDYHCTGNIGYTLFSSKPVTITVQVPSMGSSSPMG", "test": "SPR (Biacore), antibody captured on chip, soluble FcgR as analyte, kinetic 1:1 fit", "procedure": "as §2, §1"}, "[5]": {"biological_target": "T4, FcgRIIa type R extracellular domain with C-terminal His tag (human, UniProt P12318 34-217)", "T4 construct": "extracellular domain; also called FcgRIIaR; FcgRIIa R; not shown: His tag at the C terminus", "T4 sequence (looked up)": "T3 sequence (looked up) with H134R", "test": "SPR (Biacore), antibody captured on chip, soluble FcgR as analyte, kinetic 1:1 fit", "procedure": "as §2, §1"}, "[6]": {"biological_target": "T5, FcgRIIIa type V extracellular domain with C-terminal His tag (human, UniProt P08637 17-208)", "T5 construct": "extracellular domain; also called FcgRIIIaV; FcgRIIIa V; not shown: His tag at the C terminus", "T5 sequence (P08637 17-208 F176V)": "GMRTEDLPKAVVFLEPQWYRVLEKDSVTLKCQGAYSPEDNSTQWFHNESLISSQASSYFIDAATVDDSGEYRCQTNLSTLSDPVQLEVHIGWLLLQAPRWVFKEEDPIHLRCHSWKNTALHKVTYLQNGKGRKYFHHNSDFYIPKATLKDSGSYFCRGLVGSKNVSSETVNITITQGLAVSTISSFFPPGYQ", "test": "SPR (Biacore), antibody captured on chip, soluble FcgR as analyte, kinetic 1:1 fit"}, "[7]": {"biological_target": "T1, FcgRIIb extracellular domain with …", "test": "SPR (Biacore); KD of IL6R-B3/IL6R-L for this FcgR divided by KD of the sample", "procedure": "as §1"}, "[8]": {"biological_target": "T3, FcgRIIa type H extracellular domain …", "test": "SPR (Biacore); KD of IL6R-B3/IL6R-L for this FcgR divided by KD of the sample", "procedure": "as §1"}, "[9]": {"biological_target": "T4, FcgRIIa type R extracellular domain …", "test": "SPR (Biacore); KD of IL6R-B3/IL6R-L for this FcgR divided by KD of the sample", "procedure": "as §1"}, "[10]": {"biological_target": "T1, FcgRIIb extracellular domain with …", "test": "SPR (Biacore); KD of IL6R-B3/IL6R-L for this FcgR divided by KD of the sample", "procedure": "as §1", "remark": "listed apart in the source"}, "[11]": {"biological_target": "T3, FcgRIIa type H extracellular domain …", "test": "SPR (Biacore); KD of IL6R-B3/IL6R-L for this FcgR divided by KD of the sample", "procedure": "as §1", "remark": "listed apart in the source"}, "[12]": {"biological_target": "T4, FcgRIIa type R extracellular domain …", "test": "SPR (Biacore); KD of IL6R-B3/IL6R-L for this FcgR divided by KD of the sample", "procedure": "as §1", "remark": "listed apart in the source"}, "[13]": {"biological_target": "T5, FcgRIIIa type V extracellular domain …", "test": "SPR (Biacore), antibody captured on chip, soluble FcgR as analyte; too weak for kinetics, KD from steady-state 1:1 equation", "procedure": "KD can be calculated by substituting the values of Rmax, RI, and C into this equation. The values of RI and C can be determined from the sensorgram of the measurement results and measurement conditions. Rmax was calculated according to the following method."}, "[14]": {"biological_target": "T1, FcgRIIb extracellular domain with …", "test": "SPR (Biacore), antibody captured on chip, soluble FcgR as analyte, kinetic 1:1 fit", "remark": "listed apart in the source"}, "[15]": {"biological_target": "T2, FcgRIa extracellular domain with …", "test": "SPR (Biacore), antibody captured on chip, soluble FcgR as analyte, kinetic 1:1 fit", "remark": "listed apart in the source"}, "[16]": {"biological_target": "T3, FcgRIIa type H extracellular domain …", "test": "SPR (Biacore), antibody captured on chip, soluble FcgR as analyte, kinetic 1:1 fit", "remark": "listed apart in the source"}, "[17]": {"biological_target": "T4, FcgRIIa type R extracellular domain …", "test": "SPR (Biacore), antibody captured on chip, soluble FcgR as analyte, kinetic 1:1 fit", "remark": "listed apart in the source"}}, "note": "Positions count from the first letter of the chain named. In names and notes the source's numbering stands. Read-outs that look alike come from different tables or passages of the source."}
{"binder": "B1", "values": [{"measurement": "KD(IIaR)/KD(IIb)", "setting": "[1]", "value": 0.3, "unit": "ratio"}, {"measurement": "Kd", "setting": "[2]", "value": 8.9, "unit": "nM"}, {"measurement": "Kd", "setting": "[3]", "value": 0.05, "unit": "nM"}, {"measurement": "Kd", "setting": "[4]", "value": 860, "unit": "nM"}, {"measurement": "Kd", "setting": "[5]", "value": 2.3, "unit": "nM"}, {"measurement": "Kd", "setting": "[6]", "value": 400, "unit": "nM"}, {"measurement": "Relative KD", "setting": "[7]", "value": 349, "unit": "ratio"}, {"measurement": "Relative KD", "setting": "[8]", "value": 0.9, "unit": "ratio"}, {"measurement": "Relative KD", "setting": "[9]", "value": 480, "unit": "ratio"}, {"measurement": "Relative KD", "setting": "[10]", "value": 349, "unit": "ratio"}, {"measurement": "Relative KD", "setting": "[11]", "value": 0.9, "unit": "ratio"}, {"measurement": "Relative KD", "setting": "[12]", "value": 480, "unit": "ratio"}, {"measurement": "Kd", "setting": "[13]", "value": 7100, "unit": "nM"}, {"measurement": "Kd", "setting": "[14]", "value": 8.9, "unit": "nM"}, {"measurement": "Kd", "setting": "[15]", "value": 0.05, "unit": "nM"}, {"measurement": "Kd", "setting": "[16]", "value": 860, "unit": "nM"}, {"measurement": "Kd", "setting": "[17]", "value": 2.3, "unit": "nM"}]}
